B1: K1-18 IgG (antibody, V domains shown)
VH: EVQLVQSGAEVKKPGESLKISCKGSGYSFTNYWIGWVRQMPGKGLEWMGIIYPYDSDTRYSPSFEGQVTISADKSIRTAYLHWSSLKASDTAMYYCVRPRDGSYPYDAFDIWGQGTMVTVSS
VL: EIVLTQSPGTLSLSPGERATLSCRASQSVSNNYLAWYQQKPGQAPRLLIYGASSRATGIPDRFSGSGSGTDFTLTISRLEPEDFAVYYCQHCGSSLRAFGQGTKVEIKR
B2: K1-18 Fab (Fab, V domains shown)
VH: B1 VH
VL: B1 VL
B3: K1-70 IgG (antibody, V domains shown)
VH: EVQLVQSGAEVKKPGQSLKISCKASGYSLTDNWIGWVRQKPGKGLEWMGIIYPGDSDTRYSPSFQGQVTISADKSINTAYLQWSSLKASDTAIYYCVGLDWNYNPLRYWGPGTLVTVSS
VL: QSVLTQPPSVSAAPGQKVTISCSGSSSDIGSNYVSWYQQFPGTAPKLLIYDNNKRPSAIPDRFSGSKSGTSATLGITGLQTGDEADYYCGTWDSRLGIAVFGGGTQLTVLG
B4: K1-70 Fab (Fab, V domains shown)
VH: B3 VH
VL: B3 VL

Columns and labels:
[1] = target: T1, human TSH receptor (full length), coated on tubes (human, UniProt P16473 22-764); assay: competition with 125I-K1-18 IgG on TSHR coated tubes; 3 µg/mL, diluted in assay buffer
T1 construct: TSHR coated tubes as described in WO2004/050708A2; Exact preparation on the tubes is not detailed here; also called thyroid stimulating hormone receptor
Procedure: (§1) Binding inhibition assays were carried out using TSHR coated tubes as described in WO2004/050708A2. […] After aspiration, the tubes were washed and 100 μL of ¹²⁵I-labelled protein (5×10⁴ cpm) added and incubated for 1 hour at room temperature with shaking. The tubes were then aspirated, washed and counted in a gamma counter. Inhibition of labelled protein binding was calculated as 100×[1−(cpm bound in the presence of test material/cpm bound in the presence of control material)].

[2] = target: T1, human TSH receptor (full length), …; assay: competition with 125I-K1-18 IgG on TSHR coated tubes; 0.001 µg/mL, diluted in HBD serum pool
Procedure: as §1

[3] = target: T1, human TSH receptor (full length), …; assay: competition with 125I-K1-18 IgG on TSHR coated tubes; 30 µg/mL, diluted in assay buffer
Procedure: as §1

[4] = target: T1, human TSH receptor (full length), …; assay: competition with 125I-K1-18 IgG on TSHR coated tubes; 0.03 µg/mL, diluted in assay buffer
Procedure: as §1

[5] = target: T1, human TSH receptor (full length), …; assay: competition with 125I-K1-18 IgG on TSHR coated tubes; 0.1 µg/mL, diluted in HBD serum pool
Procedure: as §1

[6] = target: T1, human TSH receptor (full length), …; assay: competition with 125I-K1-18 IgG on TSHR coated tubes; 0.1 µg/mL, diluted in assay buffer
Procedure: as §1

[7] = target: T1, human TSH receptor (full length), …; assay: competition with 125I-K1-18 IgG on TSHR coated tubes; 1 µg/mL, diluted in HBD serum pool
Procedure: as §1

[8] = target: T1, human TSH receptor (full length), …; assay: competition with 125I-K1-18 IgG on TSHR coated tubes; 0.003 µg/mL, diluted in HBD serum pool
Procedure: as §1

[9] = target: T1, human TSH receptor (full length), …; assay: competition with 125I-K1-18 IgG on TSHR coated tubes; 0.01 µg/mL, diluted in HBD serum pool
Procedure: as §1

[10] = target: T1, human TSH receptor (full length), …; assay: competition with 125I-K1-18 IgG on TSHR coated tubes; 30 µg/mL, diluted in HBD serum pool
Procedure: as §1

[11] = target: T1, human TSH receptor (full length), …; assay: competition with 125I-K1-18 IgG on TSHR coated tubes; 0.001 µg/mL, diluted in assay buffer
Procedure: as §1

[12] = target: T1, human TSH receptor (full length), …; assay: competition with 125I-K1-18 IgG on TSHR coated tubes; 1 µg/mL, diluted in assay buffer
Procedure: as §1

[13] = target: T1, human TSH receptor (full length), …; assay: competition with 125I-K1-18 IgG on TSHR coated tubes; 100 µg/mL, diluted in HBD serum pool
Procedure: as §1

[14] = target: T1, human TSH receptor (full length), …; assay: competition with 125I-K1-18 IgG on TSHR coated tubes; 0.3 µg/mL, diluted in HBD serum pool
Procedure: as §1

[15] = target: T1, human TSH receptor (full length), …; assay: competition with 125I-K1-18 IgG on TSHR coated tubes; 0.3 µg/mL, diluted in assay buffer
Procedure: as §1

[16] = target: T1, human TSH receptor (full length), …; assay: competition with 125I-K1-18 IgG on TSHR coated tubes; 0.03 µg/mL, diluted in HBD serum pool
Procedure: as §1

[17] = target: T1, human TSH receptor (full length), …; assay: competition with 125I-K1-18 IgG on TSHR coated tubes; 10 µg/mL, diluted in assay buffer
Procedure: as §1

[18] = target: T1, human TSH receptor (full length), …; assay: competition with 125I-K1-18 IgG on TSHR coated tubes; 10 µg/mL, diluted in HBD serum pool
Procedure: as §1

[19] = target: T1, human TSH receptor (full length), …; assay: competition with 125I-K1-18 IgG on TSHR coated tubes; 0.003 µg/mL, diluted in assay buffer
Procedure: as §1

[20] = target: T1, human TSH receptor (full length), …; assay: competition with 125I-K1-18 IgG on TSHR coated tubes; 0.01 µg/mL, diluted in assay buffer
Procedure: as §1

[21] = target: T1, human TSH receptor (full length), …; assay: competition with 125I-K1-18 IgG on TSHR coated tubes; 3 µg/mL, diluted in HBD serum pool
Procedure: as §1

[22] = target: T1, human TSH receptor (full length), …; assay: competition with 125I-K1-18 IgG on TSHR coated tubes; 100 µg/mL, diluted in assay buffer
Procedure: as §1

Binder | Inhibition of binding (%) [1] [%] | Inhibition of binding (%) [2] [%] | Inhibition of binding (%) [3] [%] | Inhibition of binding (%) [4] [%] | Inhibition of binding (%) [5] [%] | Inhibition of binding (%) [6] [%] | Inhibition of binding (%) [7] [%] | Inhibition of binding (%) [8] [%] | Inhibition of binding (%) [9] [%] | Inhibition of binding (%) [10] [%] | Inhibition of binding (%) [11] [%] | Inhibition of binding (%) [12] [%] | Inhibition of binding (%) [13] [%] | Inhibition of binding (%) [14] [%] | Inhibition of binding (%) [15] [%] | Inhibition of binding (%) [16] [%] | Inhibition of binding (%) [17] [%] | Inhibition of binding (%) [18] [%] | Inhibition of binding (%) [19] [%] | Inhibition of binding (%) [20] [%] | further results
B1 | 93 | 2.7 | 93.8 | 39.3 | 49.4 | 78.9 | 91.1 | -0.3 | 5.8 | 95.6 | 6.9 | 92.8 | 96.1 | 78.3 | 90.9 | 15.1 | 92.5 | 94 | 2.9 | 14.9 | Inhibition of binding (%) [21]: 94%; Inhibition of binding (%) [22]: 94.5%
B2 | 81.9 | -1 | 83 | 24.8 | 39 | 56.7 | 80.2 | 1 | 1.8 | 85 | -2.6 | 77.5 | 84.8 | 65.5 | 71.1 | 10.3 | 81.8 | 83 | 0.8 | 8.8 | Inhibition of binding (%) [21]: 83.4%; Inhibition of binding (%) [22]: 86.2%
B3 | 92.9 | 0 | 93.1 | 45.6 | 55.6 | 89.2 | 92.9 | 2.1 | 6.1 | 93.9 | -1.7 | 92 | 95.3 | 82.2 | 91.5 | 17.8 | 91.9 | 95.1 | 0.1 | 6.8 | Inhibition of binding (%) [21]: 94.1%; Inhibition of binding (%) [22]: 94.5%
B4 | 91.1 | -3.2 | 92.2 | 68.8 | 75.2 | 87.6 | 92.1 | 3.7 | 16.2 | 91.8 | -3.9 | 91 | 92.5 | 88.1 | 89.6 | 35 | 92.4 | 92.6 | 4.1 | 25.6 | Inhibition of binding (%) [21]: 92.8%; Inhibition of binding (%) [22]: 93.3%
